Target: human calcium sensitive potassium channel α subunit (human Slowpoke α) (human), Q12791
Assay: cell-based or functional assay

Chain of human calcium sensitive potassium channel α subunit (human Slowpoke α) (human), Q12791 (Q12791 whole entry): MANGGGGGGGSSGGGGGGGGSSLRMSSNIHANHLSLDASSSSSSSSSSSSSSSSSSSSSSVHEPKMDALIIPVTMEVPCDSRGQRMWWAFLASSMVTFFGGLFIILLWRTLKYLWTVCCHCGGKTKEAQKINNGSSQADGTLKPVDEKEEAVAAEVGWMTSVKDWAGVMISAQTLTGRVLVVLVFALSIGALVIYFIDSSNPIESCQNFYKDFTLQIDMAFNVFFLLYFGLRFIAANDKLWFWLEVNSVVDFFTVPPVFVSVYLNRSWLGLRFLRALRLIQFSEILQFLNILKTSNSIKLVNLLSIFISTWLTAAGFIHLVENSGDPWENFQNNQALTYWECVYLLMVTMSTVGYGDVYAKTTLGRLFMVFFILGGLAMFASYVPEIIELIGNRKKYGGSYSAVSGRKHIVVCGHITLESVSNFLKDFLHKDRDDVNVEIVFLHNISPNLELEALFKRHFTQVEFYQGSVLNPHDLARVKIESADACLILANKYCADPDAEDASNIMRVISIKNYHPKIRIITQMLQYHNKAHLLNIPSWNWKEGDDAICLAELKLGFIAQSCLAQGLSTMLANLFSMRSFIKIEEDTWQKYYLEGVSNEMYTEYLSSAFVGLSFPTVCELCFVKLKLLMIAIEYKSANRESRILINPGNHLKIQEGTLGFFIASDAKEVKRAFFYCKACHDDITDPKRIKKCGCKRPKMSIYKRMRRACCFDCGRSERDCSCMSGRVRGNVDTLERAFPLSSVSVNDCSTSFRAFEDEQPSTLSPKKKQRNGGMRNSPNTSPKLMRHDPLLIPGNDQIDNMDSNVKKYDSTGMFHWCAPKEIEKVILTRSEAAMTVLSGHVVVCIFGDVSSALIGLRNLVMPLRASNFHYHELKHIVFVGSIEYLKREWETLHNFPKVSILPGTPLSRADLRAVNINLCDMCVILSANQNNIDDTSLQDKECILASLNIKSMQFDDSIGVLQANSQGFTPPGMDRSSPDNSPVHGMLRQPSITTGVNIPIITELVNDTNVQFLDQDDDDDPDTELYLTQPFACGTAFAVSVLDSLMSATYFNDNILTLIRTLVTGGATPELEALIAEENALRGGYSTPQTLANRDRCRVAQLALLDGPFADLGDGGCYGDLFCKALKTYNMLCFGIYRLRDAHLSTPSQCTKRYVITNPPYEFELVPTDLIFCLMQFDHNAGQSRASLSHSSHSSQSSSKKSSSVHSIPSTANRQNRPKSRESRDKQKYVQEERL

V1/2 (half-maximal activation voltage, Boltzmann fit, inside-out patches, 30 µM Ca2+) [mV]	τinact (inactivation time constant at 80 mV with 30 µM intracellular Ca2+) [ms]	shift in the voltage dependence of activation [mV]	Binder
20	30 to 40		human calcium sensitive potassium channel β3c subunit, Q9NPA1 23-279 (protein) MFPLLYELTAVSPSPFPQRTAFPASGKKRETDYSDGDPLDVHKRLPSSTGEDRAVMLGFAMMGFSVLMFFLLGTTILKPFMLSIQREESTCTAIHTDIMDDWLDCAFTCGVHCHGQGKYPCLQVFVNLSHPGQKALLHYNEEAVQINPKCFYTPKCHQDRSDLLNSALDIKEFFDHKNGTPFSCFYSPASQSEDVILIKKYDQMAIFHCLFWPSLTLLGGALIVGMVRLTQHLSLLCEKYSTVVRDEVGGKVPYIEQHQFKLCIMRRSKGRAEKS
-55	30 to 40	80	human calcium sensitive potassium channel β2 subunit, Q9Y691 1-235 (protein) MFIWTSGRTSSSYRHDEKRNIYQKIRDHDLLDKRKTVTALKAGEDRAILLGLAMMVCSIMMYFLLGITLLRSYMQSVWTEESQCTLLNASITETFNCSFSCGPDCWKLSQYPCLQVYVNLTSSGEKLLLYHTEETIKINQKCSYIPKCGKNFEESMSLVNVVMENFRKYQHFSCYSDPEGNQKSVILTKLYSSNVLFHSLFWPTCMMAGGVAIVAMVKLTQYLSLLCERIQRINR
45.4	30 to 40		human calcium sensitive potassium channel β3a subunit, Q9NPA1 23-279 (protein) MQPFSIPVQITLQGSRRRQGRTAFPASGKKRETDYSDGDPLDVHKRLPSSTGEDRAVMLGFAMMGFSVLMFFLLGTTILKPFMLSIQREESTCTAIHTDIMDDWLDCAFTCGVHCHGQGKYPCLQVFVNLSHPGQKALLHYNEEAVQINPKCFYTPKCHQDRSDLLNSALDIKEFFDHKNGTPFSCFYSPASQSEDVILIKKYDQMAIFHCLFWPSLTLLGGALIVGMVRLTQHLSLLCEKYSTVVRDEVGGKVPYIEQHQFKLCIMRRSKGRAEKS

From patent EP1475388A2
